Assays:
[1] = target: catalytically inactive Cas9 (dCas9) (Streptococcus pyogenes) (UniProt Q99ZW2); experiment: cell-based or functional assay
[2] = target: Cas9 nickase (nCas9) (Streptococcus pyogenes) (UniProt Q99ZW2); experiment: cell-based or functional assay

AcrIIA4 anti-CRISPR peptide
percent enzyme expression of gusA after dCas9 induction from Plasmid 6 (with acrIIA4); X-Gluc assay in E. coli [1]: 0% | percent enzyme expression of lacZ after dCas9 induction from Plasmid 6 (with acrIIA4); LacZ blue white screening in E. coli [1]: 27.3% | percent expression of flhC after dCas9 induction from Plasmid 6 (with acrIIA4); swimming motility assay in E. coli [1]: 100% | average percent of qPCR-confirmed edited cells with nCas9 Plasmid 4 (+acrIIA4), per sgRNA unit pair; without acrIIA4 (Plasmid 5) between 73% and 100% [2]: 0.7 to 5.9%

Reference: patent US20220290120A1
